Experiment: soluble on expression in E. coli; label from the status in PepcDB or PDB records

Sequence | soluble on expression in E. coli
MGSDKIHHHHHHMTAASSVSAPGAPTIGVDFGTTNTVVSLTLGDDQARLVRYSINNRDLFAFRSALSFHSVQGVGEAANERVVEAGPWAIEAYLEDPLETRFIQSFKTFAASAAFTETRILNKRYQFEDLLAAFLLRLRDHAGAQLSELPPRIIVGRPVTFAGSSPDEALALTRYEAAFERLGFTDIRYAYEPVGAAFFFARQLKQDATVLVADFGGGTSDFSLVRFERAADGTLRSTPLSRSGVGVAGDAFDYRIIDQLVSPELGKGSDYRSFSNSLPIPQRYYAAFARWDQLALLRASKDMRDIRALERTAVEPDKIAALIEVLDGNHGYALYRSVSALKEALSSQDQATFRFEAGSVRIEKPVARVEFEAWIAPELAAIETAVGQALDQADLTEAGVDRVFLTGGSSFVPAVREIFLRRFGADKIETGGEFESIASGLALIGREADLDLWTMRAG | not soluble
MGSDKIHHHHHHMDNLMLNNKIYLEGTCVSNLEFSHEMYGEGFYTFKISVNRLSDVKDILPVTISERLLTEIDIKEGAELIIEGQLRSYNKFIEGSNRLILTVFARDVQPCIEKSKNPNQIFLDGYICKEPIYRTTPFGREIADILLAVNRPYNKSDYIPTISWGRNSRFCKTLNVGDNIRVWGRLQSRKYQKKVGEDEVVTKTAYEVSISKLEYADEIDEEIDKSVENLAE | not soluble
MKRESVLFQAARKHHLNLLFPLFRANTSASYPVSRFISRPITVLSKGFAKGFFCIKKETVDKIQQFFFDKWAIEERRYHQLLSILLPGLKNGNLASVEQYLGAKRIEAYAAVPYVAGRWELDDASLPQGAVVVLTCEGVLYSWETYRLERYISAAMANDRISGVVLFVNGPGGMITRVDVLEKLIRQSPKPIVAYITGVCASAHFWFVSACARRFVSSPMDEIGSCGVVYTFQSFKEYYAQMGIEIEDIYPDSADLKNRAYRDKEEKQDDTLIKENLSFYHHLFAQTIARNLGVKYDAQDPLFRGQTFFADTALAKGYVDAYGSLEDAILWVSAQKTVKRANKMILEHHHHHH | not soluble
MLSPDNVFIAIKPVDMRRGIDSLTQYIQDELRSTWHEGAAFVFVNKARSRIKVLRWDKHGVWLCTRRLHKGSFRWPRANDAAWHLTPDEFNWLIAGVDWQQVKGHDLTKWVWQNEPELRPENTQNTLLTQ | not soluble
MGSDKIHHHHHHMIELDNIKICPLAGIDDAIIIQSLNKASLTTSTSAIGPAVAEMVTRHGAVLLRGFAPEGTSAMAALFASLQWKPLQYTYRSTPRTSVSEGIYTATEFPASEEIMLHSENAFQADWPTRIGFHCAVPARAGGETPIGSLEKITARIDTGLFDEFRRRGVSYVRNYSDYVDLPWQVVFQSSDRGDVEEYCKNHGIGFEWRNSGLRTWQACQGTATHPERGNEVWFNQAHMFHYTALGPEMASNLLSIFGEEELPRNAYYGDGGVIPKDAVEHIREAFSAERASFGWEKDDILLLDNMRYCHGRNPFEGPRQVLVSMGRGYASVVDSSH | not soluble
MIFSKKDIQEVLPADVTGRSVAHPKRWLVALVRISHEKKTSERLSKMGIENFLPVQQEVHQWSDRRKVVERVLLPMMIFVHVDMYEQKEVLTLGSISRYMVLRGESTPAVIPDEQMHRFKFMLDYSDEAINMSTTPLSPGTKIKVIKGPLSGLQGELVTVNGKSKVAVRLTMLGCAFVDIPVGCVEPLEK | not soluble
MMHIAHSAPNHTVEGLYRAHNVWLTTWLRRRLGCPHSAADLAQDTFVKVLGARDTAQIIEPRAFLTTIAKRVLCNHYRRQDLERAYYQALAELPECAAPSEEERAIILETLVELDQLLDGLPALVKRAFLMSQVDGLSHGQIAAELDISIATVKRHLNKAALRCYFAL | not soluble
MFLLQAPLQRRILEIGKKHGITELHPDVVSYVSHATQQRLQNLVEKISETAQQKNFSYKDDDRYEQASDVRAQLK | soluble
MSFATISVIGLGYIGLPTAAAFASRQKQVIGVDINQHAVDTINRGEIHIVEPDLASVVKTAVEGGFLRASTTPVEADAWLIAVPTPFKGDHEPDMTYVESAARSIAPVLKKGALVILESTSPVGSTEKMAEWLAEMRPDLTFPQQVGEQADVNIAYCPERVLPGQVMVELIKNDRVIGGMTPVCSARASELYKIFLEGECVVTNSRTAEMCKLTENSFRDVNIAFANELSLICADQGINVWELIRLANRHPRVNILQPGPGVGGHCIAVDPWFIVAQNPQQARLIRTAREVNDHKPFWVIDQVKAAVADCLAATDKRASELKIACFGLAFKPNIDDLRESPAMEIAELIAQWHSGETLVVEPNIHQLPKKLTGLCTLAQLDEALATADVLVMLVDHSQFKVINGDNVHQQYVVDAKGVWR | not soluble
MSLQGPNPIITVYSTQDYPILHAELASQVYLMDQVEQWENMISQRLSANPSVAAQQASQIFQSAEWKQSEEQLKRSYQGLISGWQNGIKKVPAVLFQYPGKEDSVIYGETNIAQALSLWQREITKEGTREGHHHHHH | soluble
EEFPFALGVQTLPQTCDEPKAHTSFQISLSVSYTGSRSASNMAIVDVKMVSGFIPLKPTVKMLERSNHVSRTEVSSNHVLIYLDKVSNQTLSLFFTVLQDVPVRDLKPAIVKVYDYYETDEFAIAEYNAPCSKDLGNA | soluble
MRRIAIVGGGQAGLPLAFGLLDKGYEVTVVSNRTPDDIRRGKVMSSQCMFDPALQIERELGINGWEADCPPVEGIGFAVPHPEQAGAKAIEWSARLDRPAQSVDQRVKMPAWLEQVQARGGRLLLQDAGIAELEALAQSHDLVILAAGKGEVVKLFERDAARSPFDKPQRALALTYVHGLEPAPDYSRVAFNLIPGVGEYFVFPALTLSGPCDIMVFEGVPGGPLDCWRDVRTPQEHLAASRRFLQTYLPWEADRARNVELTDDKGILAGAFAPTVRKPVMTLPSGRLVFGLGDAVVTNDPITGQGANNATKACKVYLDAILARGEQPYTRDWMEATFEQFWDYAQWVVQWTNSLLTPPPPHILGLLGTAEQAPSLASTIANGFNHPPSYFPWWADAQACEGFIAQHQRTPATATALEHHHHHH | not soluble
QVQLVQSGAEVKKPGSSVKVSCKASGYTFSSNVISWVRQAPGQGLEWMGGVIPIVDIANYAQRFKGRVTITADESTSTTYMELSSLRSEDTAVYYCASTLGLVLDAMDYWGQGTLVTVSSASTKGPSVFPLAPCSRSTSESTAALGCLVKDYFPEPVTVSWNSGALTSGVHTFPAVLQSSGLYSLSSVVTVPSSSLGTKTYTCNVDHKPSNTKVDKRVESKYGPP | soluble
AGSNGAQEKKYIVGFKQTMSTMSAAKKKDVISEKGGKVQKQFKYVDAASATLNEKAVKELKKDPSVAYVEEDHVAHAY | soluble
MMIMLDPFSEKAKELLKGFGSINDFMDAIPKIVSVDDVIERIRVVKNEKLIDKFLDQDNVMDLAQFYALLGALSYSPYGIELELVKKANLIIYSERLKRKKEIKPEEISIDVSTAIEFPTEDVRKIERVYGKIPEYTMKISDFLDLVPDEKLANYYIYEGRVYLKREDLIRIWSKAFERNVERGVNMLYEIRDELPEFYRKVLGEIQAFAEEEFGRKFGEIQGGKLRPEFFPPCIKNALKGVPQGIRNYAITVLLTSFLSYARICPNPPRRNVRVKDCIKDIRVITEEILPIIIEAANRCSPPLFEDQPNEIKNIWYHLGFGYTANPSLEDSGNSTWYFPPNCEKIRANAPQLCTPDKHCKYIRNPLTYYLRRLYLEGRRNAPKRGNKRGKKELLHQLEHHHHHH | soluble
MGHHHHHHSHMSLFSGTIQNLENALSRADIKQKVITNNIANIDTPNYKAKKVSFQNLLDQESSRLEAIKTDYRHVDFSDTDSNYSIVASGDTSYQQNGNNVDVDKEMTELAQNQINYQALVERMNGKFNSLKTVLTGGK | not soluble
MSLKRSEFPENELWDLTALYKDRQDFLLAIEKALEDIKVFKKNYEGKLNCVEDFTSALMEIEHIYIQMSHIDTYAFMPQTTDFSNEEFAQISQAGSDFATKANVLLSFFNTALANADIKILDSLENNPHFKATIRQAKIQKQHLLSPEVEKALTNLNEVLNTPYDIYTKMRAGDFDMEDFEVDGKTYKNSFVTYENYFQNHENAEIREKSFRSFSKGLRKHQNAAAAAYLAKVKSEKLIADMRGYDSVFDYLLSEQEVDRSMFDRQIDLIMDEFGPVAQRFLKHIADVNGIEKMTFADWKLDIDNELNPEVSINDAYDLVMKSVAPLGKEYSQEVERYQKERWVDFAANANKDSGGYAADPYKVHPYVLMSWTGRMSDVYTLIHEIGHSGQFIFSDNHQSFFNTHMSTYYVEAPSTFNELLLSDYLENQFDTARQKRFALAHRLTDTYFHNFITHLLEAAFQRKVYTLIEEGGTFGAEQLNAIMKEVLTQFWGDAIEIDDDAALTWMRQAHYYMGLYSYTYSAGLVISTAGYLNLKNNPNGAKEWLAFLKSGGSRTPLETALLISADISTDKPLRDTINFLSNTVDQIINYSNLIEQEGHHHHHH | soluble
MIQDETLEREVADLVISTLNLDVSPESVDPEAPLYREGLGLDSIDILEIALVVSKRYGFQLRADNEDNVLEHHHHHH | not soluble
TDPDCDRIGVLVKNKSGEYKVLTGNQTGVLLTHYIISSLKDTGKLPANGAVIKTIVTSEMTRKITEDYDMKLIDVLTGFKYIGEKIKEFEETNSNTYLFGFEESYGCLAGTFVRDKDAVVAATLVCEMALYYKNKGLSLDDALNELYEKYGF | not soluble
MGSDKIHHHHHHMTNQLLSEQWFEHQAKVTEAIGRPGFAASLFAALGVIRPIQATTVYLYPHDGMPCALFEQDDKAPWQPEGNVSRYLSGFYLLDPFYGACVEQVESGCYGLFEVAPDHFEVSEYYQSFYRHSHLEDELNYILQVAPGQSLAVSLAFTDKLDGQSRTRFGLITPWVLAVLGKHFAGLDSRAGRFENILEQRIHAALNNFGSSLLTERECRIAQLILRGHSTKSLAERLGVSEDTIKSHRKNVYAKLDIGTQSELFSLFIDALANAQGVLGKDPLESYMGKLR | not soluble
MGSDKIHHHHHHMTISRNYDQEIKDTAGHKYAYNFDFDVMHPFMVRAFTPFFRPGNLLELGSFKGDFTSRLQEHFNDITCVEASEEAISHAQGRLKDGITYIHSRFEDAQLPRRYDNIVLTHVLEHIDDPVALLKRINDDWLAEGGRLFLVCPNANAVSRQIAVKMGIISHNSAVTEAEFAHGHRCTYALDTLERDASRAGLQVTYRSGIFFKALANFQWDQILQTDILSKEYLDGCYQLGQQYPDLCASIFLLCEKGINQ | not soluble
MFEIATAKVDNMRVSIVGGGFAGLAAAQLAEEVTSDVHLYDKGTYSGDRRGAWGEMVWDYSQLPLDRHVPGYVREATTGIFIGSDGKTAINVPDGVILNRGELEKHWASTLEETEIIADAEVDEAEFRKLSAESDLLIDATGQFPISRRFTSLSYDVACPTLSGRIEADFSHLYPEPRALAYENYFLWIVPQSPDEATIGLGCQEDKSPAELYEDMRQLLAEVDIEPPERETLYSGTDVSNGLRSLSDCSYELNDCTVHIAGDAIGLANRLTGFGMVHAAQSGQAAVRSFVQGESYTRRLLCQNFWTKAVTGVVSPVHHTIGLDGIARLAKSDIEYQESFEPQQPTDILSAVRIFILEHHHHHH | not soluble

Source: the DeepSol protein solubility set
